As a reminder, the EC50 is the concentration at which the effect is half-maximal. What is called IC50 is the point on the concentration scale where inhibition reaches its midpoint.

From patent US20080207501A1 come the findings set out here.

The target in one assay is Amylin RBA (rat) (UniProt P32214). The assay is described as follows: radioligand binding assay (displacement of radiolabeled amylin).
Another assay has as its target CGRP RBA (UniProt Q16602). The assay is described as follows: radioligand binding assay (displacement of radiolabeled CGRP).
Assay [1] has as its target calcitonin receptor of CHO cells. The assay is described as follows: cell-based or functional assay.
In assay [2] the target is T1, calcitonin receptor of T47D cells (UniProt P30988).
T1 sequence (looked up): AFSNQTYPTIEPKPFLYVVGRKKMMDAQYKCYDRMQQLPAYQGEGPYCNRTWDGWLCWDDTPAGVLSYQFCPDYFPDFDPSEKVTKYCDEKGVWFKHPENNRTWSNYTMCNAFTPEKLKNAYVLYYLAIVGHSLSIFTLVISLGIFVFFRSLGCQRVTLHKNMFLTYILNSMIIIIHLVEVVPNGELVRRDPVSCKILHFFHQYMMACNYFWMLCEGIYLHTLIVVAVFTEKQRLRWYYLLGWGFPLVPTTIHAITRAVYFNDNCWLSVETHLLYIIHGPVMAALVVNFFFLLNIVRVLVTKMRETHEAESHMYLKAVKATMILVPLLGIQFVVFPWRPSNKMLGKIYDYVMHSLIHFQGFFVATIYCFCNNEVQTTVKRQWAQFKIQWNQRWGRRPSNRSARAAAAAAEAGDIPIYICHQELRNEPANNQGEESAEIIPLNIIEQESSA
The assay is described as follows: cell-based or functional assay.

The target in assay [3] is CGRP receptor (membranes prepared from SK-N-MC cells) (UniProt Q16602). As to the kind of experiment: radioligand displacement, 125I-hCGRP, SK-N-MC cell membranes. In general terms: In a radioligand displacement assay an active substance lowers the binding of a labelled ligand.
The target of assay [4] is calcitonin receptor (receptor binding assay). The assay is described as follows: rCalcitonin RBA, method not described.

Chain of CGRP RBA (Q16602 23-461, chain 1 of 2): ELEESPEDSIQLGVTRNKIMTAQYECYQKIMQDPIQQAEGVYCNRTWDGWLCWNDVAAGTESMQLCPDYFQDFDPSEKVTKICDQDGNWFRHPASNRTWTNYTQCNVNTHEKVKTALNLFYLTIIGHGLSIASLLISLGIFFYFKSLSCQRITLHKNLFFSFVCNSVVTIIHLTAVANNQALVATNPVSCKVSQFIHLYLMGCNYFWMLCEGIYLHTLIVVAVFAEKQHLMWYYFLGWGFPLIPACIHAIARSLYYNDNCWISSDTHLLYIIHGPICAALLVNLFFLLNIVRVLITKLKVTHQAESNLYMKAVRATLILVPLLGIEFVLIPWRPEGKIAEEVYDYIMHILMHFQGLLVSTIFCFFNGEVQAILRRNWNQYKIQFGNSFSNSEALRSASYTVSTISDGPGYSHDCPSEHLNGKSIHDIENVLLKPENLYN
Chain of CGRP RBA (O60894 27-148, chain 2 of 2, further chain): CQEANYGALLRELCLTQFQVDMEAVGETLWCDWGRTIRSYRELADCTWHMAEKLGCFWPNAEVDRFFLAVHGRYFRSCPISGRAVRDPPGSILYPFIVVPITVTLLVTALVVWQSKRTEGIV
Chain of CGRP receptor (membranes prepared from SK-N-MC cells) (Q16602 23-461 limits assumed, chain 1 of 2): as the sequence (Q16602 23-461, chain 1 of 2) above
Chain of CGRP receptor (membranes prepared from SK-N-MC cells) (O60894 27-148 limits assumed, chain 2 of 2, further chain): as the sequence (O60894 27-148, chain 2 of 2, further chain) above
Chain of Amylin RBA (rat) (P32214 other isoform, or with tags, fused parts or gaps, chain 1 of 2): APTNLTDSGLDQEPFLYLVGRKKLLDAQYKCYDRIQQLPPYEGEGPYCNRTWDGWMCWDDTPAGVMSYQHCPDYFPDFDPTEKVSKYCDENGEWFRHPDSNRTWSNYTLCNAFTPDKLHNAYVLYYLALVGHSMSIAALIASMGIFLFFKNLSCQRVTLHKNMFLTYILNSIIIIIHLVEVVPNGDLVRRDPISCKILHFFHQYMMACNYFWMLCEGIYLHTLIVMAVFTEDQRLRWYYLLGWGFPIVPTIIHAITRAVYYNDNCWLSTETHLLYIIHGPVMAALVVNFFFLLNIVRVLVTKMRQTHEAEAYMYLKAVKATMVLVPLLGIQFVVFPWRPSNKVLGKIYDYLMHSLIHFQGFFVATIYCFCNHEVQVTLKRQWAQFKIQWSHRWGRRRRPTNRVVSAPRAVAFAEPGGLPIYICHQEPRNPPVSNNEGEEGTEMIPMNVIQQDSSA
Chain of Amylin RBA (rat) (Q9JJ74 27-148, chain 2 of 2, further chain): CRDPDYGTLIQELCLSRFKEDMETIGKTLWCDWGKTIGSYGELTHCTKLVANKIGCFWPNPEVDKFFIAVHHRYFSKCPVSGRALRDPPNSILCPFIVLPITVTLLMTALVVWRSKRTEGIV

In turn, AFP-6 (1-31) came in with an EC50 with Amylin RBA (rat) above 100 nM.
AFP-6 [1-31] registered an EC50 with CGRP RBA of 277 nM.
For the substance Human CGRP α (peptide), in assay [1], the EC50, cAMP (AlphaScreen), CHO cells, Average came out at 80.4 nM; the EC50, cAMP (AlphaScreen), CHO cells, Experiment 1 was determined as 70.3 nM; the EC50, cAMP (AlphaScreen), CHO cells, Experiment 2 worked out at 81.2 nM; the EC50, cAMP (AlphaScreen), CHO cells, Experiment 3 was found to be 89.7 nM. Moreover, in assay [2], the EC50, cAMP (AlphaScreen), T47D cells, Average amounted to 35.5 nM; the EC50, cAMP (AlphaScreen), T47D cells, Experiment 1 is 11.9 nM; the EC50, cAMP (AlphaScreen), T47D cells, Experiment 2 worked out at 66.7 nM; the EC50, cAMP (AlphaScreen), T47D cells, Experiment 3 is 27.8 nM.
As to “r/h Amylin (from UniProt P12969 38-74) (peptide)”, in assay [3], the IC50 turned out to be 12 nM.
For r/h Calcitonin (peptide), the IC50 in assay [4] lay in the range of 1.3 to 3.4 nM.
